The supplement of paper PMC10567573
± gives the standard deviation.

Assay: protein stability index of a GFP-peptide fusion (GPS, HEK-293T) (PSI 1-6); higher = more stable
[1] = treatment: DMSO, c terminus: a fixed tail appended
[2] = treatment: MLN4924 1 uM, 8 h, c terminus: a fixed tail appended
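Also: 24-mer peptide tiles fused after GFP, lentivirally expressed, FACS-sorted into six equal bins by GFP/DsRed ratio, decoded by Illumina sequencing, PSI is the read-weighted mean bin number.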

RAALISRRHLQFWKSHLKKVQKPL [RHOBTB1]
protein stability index [1]: 2.22 ± 0.16 | protein stability index [2]: 2.54 ± 0.34

ASHSLSPSEHVQGKSPVNMVTVAM [ZNF649]
protein stability index [1]: 3.3 ± 0.29 | protein stability index [2]: 3.21 ± 0.35

PKKSAPSAVARSNSWMGSQGPMSQ [RBMY1A1]
protein stability index [1]: 4.08 ± 0.13 | protein stability index [2]: 4.28 ± 0.2

RYVFEAVIRWIAHDTEIRKVHMKD [GAN]
protein stability index [1]: 2.74 ± 0.84 | protein stability index [2]: 2.4 ± 0.65

TIQKGSYTFVPWLLSFKRGSALEE [TNFSF13B]
protein stability index [1]: 2.11 ± 0.15 | protein stability index [2]: 2.04 ± 0.22

LPVPPTPGLLSLATTSASDSLKPE [TFE3]
protein stability index [1]: 4.87 ± 0.26 | protein stability index [2]: 5.04 ± 0.29

NHQKDLFRRTDGRCLIWGRKPKVI [DHCR7]
protein stability index [1]: 2.66 ± 0.27 | protein stability index [2]: 2.74 ± 0.3

SCMASLWTAPLVMRTTNLDNRCKL [CDC25A]
protein stability index [1]: 2.33 ± 0.084 | protein stability index [2]: 2.43 ± 0.15

ERRRRFNINDRIKELGTLIPKSSD [TFE3]
protein stability index [1]: 4.04 ± 0.099 | protein stability index [2]: 4.09 ± 0.2

ADEQLHCAGKAKRSGGHAPRVREL [ESR2]
protein stability index [1]: 4.45 ± 0.26 | protein stability index [2]: 4.39 ± 0.3

GNPDPEITWFKDFLPVDTSNNNGR [PTPRD]
protein stability index [1]: 4.27 ± 0.31 | protein stability index [2]: 4.76 ± 0.26

EASSSPPEGSQDRNTSWGVVQEPP [TLE6]
protein stability index [1]: 5.12 ± 0.28 | protein stability index [2]: 5.2 ± 0.18

RHQSIFKSNGFFHGISIPEPEDME [CDKL4]
protein stability index [1]: 3.58 ± 0.27 | protein stability index [2]: 3.87 ± 0.15

KQLEFCFSRENLSKDLYLISQMDS [LARP4]
protein stability index [1]: 2.4 ± 0.2 | protein stability index [2]: 2.33 ± 0.28

FRVLCTAPAKYTVFDAEGYVKPQS [MOSPD3]
protein stability index [1]: 2.02 ± 0.35 | protein stability index [2]: 2.19 ± 0.53

MLGKYGSSLEFTELLTLVNRKVSQ [CASP6]
protein stability index [1]: 2.29 ± 0.23 | protein stability index [2]: 2.34 ± 0.43

IYKLEEHEEFFPAFQAFTNDLLEI [CEP70]
protein stability index [1]: 2.43 ± 0.24 | protein stability index [2]: 2.39 ± 0.072

QLEEGLKDTDLARVRRFQVVEVTK [M1AP]
protein stability index [1]: 4.06 ± 0.15 | protein stability index [2]: 4.04 ± 0.32

TACKPVIRVPSVPPVPCVPSVPCT [KRT36]
protein stability index [1]: 3.15 ± 0.28 | protein stability index [2]: 3.27 ± 0.2

PNLSPHAPWNYHYHCPGSPDHQVP [TRAF3IP2]
protein stability index [1]: 3.29 ± 0.34 | protein stability index [2]: 3.54 ± 0.32

ALKHYVESASSQSGCLRISIQKLS [NECAB1]
protein stability index [1]: 2.05 ± 0.12 | protein stability index [2]: 2.18 ± 0.28

TSYKPYLNRDEEIIKQLQKGVQQK [DENND6A]
protein stability index [1]: 3.34 ± 0.25 | protein stability index [2]: 3.27 ± 0.34

MDLKTAVFNAARDGKLRLLTKLLA [FEM1C]
protein stability index [1]: 2.17 ± 0.2 | protein stability index [2]: 2.3 ± 0.32

CRLINEDVNEQVMQVLGPEDLQSI [CEP70]
protein stability index [1]: 3.65 ± 0.32 | protein stability index [2]: 3.54 ± 0.28

KVVKSAQHYTETALDEIKLLKCVR [SRPK2]
protein stability index [1]: 2.72 ± 0.32 | protein stability index [2]: 2.68 ± 0.21

LLDADWSINAGSWMWLSCSSFFQQ [CRY1]
protein stability index [1]: 2.67 ± 1.1 | protein stability index [2]: 2.57 ± 0.22

RVQVLKNEVRRGSPVLLGWVEQAY [TIAF1]
protein stability index [1]: 2.37 ± 0.18 | protein stability index [2]: 2.21 ± 0.37

NYGADTNTRNYEGQTPLAVSISIS [ASB7]
protein stability index [1]: 2.65 ± 0.45 | protein stability index [2]: 2.77 ± 0.48

RRVRLELWDTSGQGRFCTIFRSYS [RAB40C]
protein stability index [1]: 2.35 ± 0.5 | protein stability index [2]: 1.99 ± 0.29

RLKTRSWAGERSRRELCSRLQDQ [CDC25B]
protein stability index (treatment: DMSO, c terminus: native): 4.02 ± 0.17 | protein stability index (treatment: MLN4924 1 uM, 8 h, c terminus: native): 4.13 ± 0.15

EDHFPLLFSEASECMLLVFGIDVK [MAGEA10]
protein stability index [1]: 2.73 ± 0.84 | protein stability index [2]: 2.7 ± 0.77

TPTLKVFMHENLYFTNRKVNSVCW [DCAF4]
protein stability index [1]: 2.26 ± 0.4 | protein stability index [2]: 1.95 ± 0.22

NWQPAVPLMHMLHLSGALDFPRQS [SPATS1]
protein stability index [1]: 2.07 ± 0.39 | protein stability index [2]: 2.15 ± 0.52

IADYLLLPLAEREHVSRALCIHTG [TRIB1]
protein stability index [1]: 2.23 ± 0.47 | protein stability index [2]: 2.02 ± 0.33

RTSRKFLACRLTPDMETKLLFMTS [INTS3]
protein stability index [1]: 2.49 ± 0.37 | protein stability index [2]: 2.33 ± 0.39

FLSDVTAAVKENQMTPTNLAVCLA [DLC1]
protein stability index [1]: 2.72 ± 0.23 | protein stability index [2]: 2.92 ± 0.29

LPRSEDDDCDDDDDDAQILPSPVQ [DRICH1]
protein stability index [1]: 5.5 ± 0.11 | protein stability index [2]: 5.53 ± 0.27

RSLQDLARIAIRGTIKKIIHQETV [PCMTD2]
protein stability index [1]: 2.39 ± 0.32 | protein stability index [2]: 2.52 ± 0.65

DRENGSDNLPSSAGSGDKPLSDPA [TPD52L2]
protein stability index [1]: 5.49 ± 0.26 | protein stability index [2]: 5.45 ± 0.29

EEEEAEDEEVVATAGDRLTEFRKG [IRX6]
protein stability index [1]: 5.48 ± 0.34 | protein stability index [2]: 5.6 ± 0.28

VPAPQPPVTKPLFPSAGQAQAAVQ [ZNF207]
protein stability index [1]: 4.39 ± 0.41 | protein stability index [2]: 4.59 ± 0.18

NIKIWLSLRSYLKRRGPQRSVDVV [PHTF1]
protein stability index [1]: 2.43 ± 0.35 | protein stability index [2]: 2.54 ± 0.36

PSELRDLVTQQLPHLMPSNCGLEE [S100A14]
protein stability index [1]: 2.71 ± 0.22 | protein stability index [2]: 3.02 ± 0.18

GYLVTKVVAVDRDSGQNAWLSYRL [PCDHGA10]
protein stability index [1]: 2.6 ± 0.56 | protein stability index [2]: 2.58 ± 0.69

LVALKCTCCYFKFIIEYYNIRPAD [FBXO34]
protein stability index [1]: 2.69 ± 0.38 | protein stability index [2]: 2.81 ± 0.9
